This is an account of results in US20190076400A1 (PROTAGONIST THERAPEUTICS, published 2019).

B1: H-DMT-r-Bip-K-NH2 (peptide)
peptide: H-[Dmt][dR][Bip]K-NH2
SMILES: Cc1cc(O)cc(C)c1C[C@H](N)C(=O)N[C@H](CCCNC(=N)N)C(=O)N[C@@H](Cc1ccc(-c2ccccc2)cc1)C(=O)N[C@@H](CCCCN)C(N)=O
B2: H-DMT-Tic-G-bhF-Sar-NH2 (peptide)
peptide: H-[Dmt][Tic]G[β3hF][Sar]-NH2
SMILES: Cc1cc(O)cc(C)c1C[C@H](N)C(=O)N1Cc2ccccc2C[C@H]1C(=O)NCC(=O)N[C@H](CC(=O)N(C)CC(N)=O)Cc1ccccc1
B3: H-DMT-r-W-N(Me)bAla-OH (peptide)
peptide: H-[Dmt][dR]W[NMeβAla]-OH
SMILES: Cc1cc(O)cc(C)c1C[C@H](N)C(=O)N[C@H](CCCNC(=N)N)C(=O)N[C@@H](Cc1c[nH]c2ccccc12)C(=O)N(C)CCC(=O)O
B4: H-DMT-r-Phe(4-F)-Sar-NH2 (peptide)
peptide: H-[Dmt][dR][Phe(4-F)][Sar]-NH2
SMILES: Cc1cc(O)cc(C)c1C[C@H](N)C(=O)N[C@H](CCCNC(=N)N)C(=O)N[C@@H](Cc1ccc(F)cc1)C(=O)N(C)CC(N)=O
B5: H-DMT-G-G-bhF-Sar-NH2 (peptide)
peptide: H-[Dmt]GG[β3hF][Sar]-NH2
SMILES: Cc1cc(O)cc(C)c1C[C@H](N)C(=O)NCC(=O)NCC(=O)N[C@H](CC(=O)N(C)CC(N)=O)Cc1ccccc1
B6: H-DMT-(D)Asp-G-bhF-Sar-NH2 (peptide)
peptide: H-[Dmt][dD]G[β3hF][Sar]-NH2
SMILES: Cc1cc(O)cc(C)c1C[C@H](N)C(=O)N[C@H](CC(=O)O)C(=O)NCC(=O)N[C@H](CC(=O)N(C)CC(N)=O)Cc1ccccc1
B7: H-Phe(DMC)-G-G-bhF-Sar-NH2 (peptide)
peptide: H-[Phe(2,6-Me2,4-CONH2)]GG[β3hF][Sar]-NH2
SMILES: Cc1cc(C(N)=O)cc(C)c1C[C@H](N)C(=O)NCC(=O)NCC(=O)N[C@H](CC(=O)N(C)CC(N)=O)Cc1ccccc1
B8: H-DMT-a-Aib-bhF-Sar-NH2 (peptide)
peptide: H-[Dmt][dA][Aib][β3hF][Sar]-NH2
SMILES: Cc1cc(O)cc(C)c1C[C@H](N)C(=O)N[C@H](C)C(=O)NC(C)(C)C(=O)N[C@H](CC(=O)N(C)CC(N)=O)Cc1ccccc1
B9: H-DMT-N(Me)-a-Aba-G-NH2 (peptide)
peptide: H-[Dmt][dNMeA]XG-NH2
modifications: not fully specified (residue 3); printed as DMT-N(Me)a-Aba-G
B10: H-DMT-r-Phe(4-CN)-Sar-NH2 (peptide)
peptide: H-[Dmt][dR][Phe(4-CN)][Sar]-NH2
SMILES: Cc1cc(O)cc(C)c1C[C@H](N)C(=O)N[C@H](CCCNC(=N)N)C(=O)N[C@@H](Cc1ccc(C#N)cc1)C(=O)N(C)CC(N)=O
B11: H-DMT-(D)Thr-G-bhF-Sar-NH2 (peptide)
peptide: H-[Dmt][dT]G[β3hF][Sar]-NH2
SMILES: Cc1cc(O)cc(C)c1C[C@H](N)C(=O)N[C@@H](C(=O)NCC(=O)N[C@H](CC(=O)N(C)CC(N)=O)Cc1ccccc1)[C@H](C)O
B12: H-DMT-(D)Tyr-G-bhF-Sar-NH2 (peptide)
peptide: H-[Dmt][dY]G[β3hF][Sar]-NH2
SMILES: Cc1cc(O)cc(C)c1C[C@H](N)C(=O)N[C@H](Cc1ccc(O)cc1)C(=O)NCC(=O)N[C@H](CC(=O)N(C)CC(N)=O)Cc1ccccc1
B13: H-DMT-r-Homo-F-N(Me)bAla-OH (peptide)
peptide: H-[Dmt][dR]X[NMeβAla]-OH
modifications: not fully specified (residue 3); printed as H-DMT-r-Homo-F-N(Me)bAla-OH
B14: H-Phe(DMC)-(D)Thr-G-bhF-Sar-NH2 (peptide)
peptide: H-[Phe(2,6-Me2,4-CONH2)][dT]G[β3hF][Sar]-NH2
SMILES: Cc1cc(C(N)=O)cc(C)c1C[C@H](N)C(=O)N[C@@H](C(=O)NCC(=O)N[C@H](CC(=O)N(C)CC(N)=O)Cc1ccccc1)[C@H](C)O
B15: H-DMT-r-F-Sar-NH2 (peptide)
peptide: H-[Dmt][dR]F[Sar]-NH2
SMILES: Cc1cc(O)cc(C)c1C[C@H](N)C(=O)N[C@H](CCCNC(=N)N)C(=O)N[C@@H](Cc1ccccc1)C(=O)N(C)CC(N)=O
B16: H-DMT-dTic-F-Sar-NH2 (peptide)
peptide: H-[Dmt][dTic]F[Sar]-NH2
SMILES: Cc1cc(O)cc(C)c1C[C@H](N)C(=O)N1Cc2ccccc2C[C@@H]1C(=O)N[C@@H](Cc1ccccc1)C(=O)N(C)CC(N)=O
B17: H-Phe(DMC)-Tic-G-bhF-Sar-NH2 (peptide)
peptide: H-[Phe(2,6-Me2,4-CONH2)][Tic]G[β3hF][Sar]-NH2
SMILES: Cc1cc(C(N)=O)cc(C)c1C[C@H](N)C(=O)N1Cc2ccccc2C[C@H]1C(=O)NCC(=O)N[C@H](CC(=O)N(C)CC(N)=O)Cc1ccccc1
B18: H-DMT-a-ILeu-bhF-Sar-NH2 (peptide)
peptide: H-[Dmt][dA]I[β3hF][Sar]-NH2
SMILES: CC[C@H](C)[C@H](NC(=O)[C@@H](C)NC(=O)[C@@H](N)Cc1c(C)cc(O)cc1C)C(=O)N[C@H](CC(=O)N(C)CC(N)=O)Cc1ccccc1
B19: H-DMT-a-Leu-bhF-Sar-NH2 (peptide)
peptide: H-[Dmt][dA]L[β3hF][Sar]-NH2
SMILES: Cc1cc(O)cc(C)c1C[C@H](N)C(=O)N[C@H](C)C(=O)N[C@@H](CC(C)C)C(=O)N[C@H](CC(=O)N(C)CC(N)=O)Cc1ccccc1
B20: H-DMT-N(Me)-a-F-Sar-NH2 (peptide)
peptide: H-[Dmt][dNMeA]F[Sar]-NH2
SMILES: Cc1cc(O)cc(C)c1C[C@H](N)C(=O)N(C)[C@H](C)C(=O)N[C@@H](Cc1ccccc1)C(=O)N(C)CC(N)=O
B21: H-Tic(7-OH)-a-G-bhF-Sar-NH2 (peptide)
peptide: H-[Tic(7-OH)′][dA]G[β3hF][Sar]-NH2

Numbered stars: 1 amine (or outer) side, 2 acyl side, 3 side chain; on linkers, the order of the positions; unused ones are H or OH. Square brackets hold non-standard residues; d marks the D form. Primed or numbered codes have the meaning given here. Phe(2,6-Me2,4-CONH2) = Cc1cc(C(N)=O)cc(C)c1C[C@H](N)C(=O)O; Bip = N[C@@H](Cc1ccc(-c2ccccc2)cc1)C(=O)O; Phe(4-CN) = N#Cc1ccc(C[C@H](N)C(=O)O)cc1; Phe(4-F) = N[C@@H](Cc1ccc(F)cc1)C(=O)O; Dmt = Cc1cc(O)cc(C)c1C[C@H](N)C(=O)O; NMeβAla = CN(CCC(=O)[*:2])[*:1]; Tic = O=C(O)[C@@H]1Cc2ccccc2CN1; dTic = O=C(O)[C@H]1Cc2ccccc2CN1; β3hF = N[C@H](CC(=O)O)Cc1ccccc1; Tic(7-OH)′ = not defined here; dNMeA = CN[C@H](C)C(=O)O; Aib = CC(C)(N)C(=O)O; Sar = CNCC(=O)O Bounds are passed on as bounds.

Chain of µ-opioid receptor (MOR), Human-ORPM1 (P35372 whole entry): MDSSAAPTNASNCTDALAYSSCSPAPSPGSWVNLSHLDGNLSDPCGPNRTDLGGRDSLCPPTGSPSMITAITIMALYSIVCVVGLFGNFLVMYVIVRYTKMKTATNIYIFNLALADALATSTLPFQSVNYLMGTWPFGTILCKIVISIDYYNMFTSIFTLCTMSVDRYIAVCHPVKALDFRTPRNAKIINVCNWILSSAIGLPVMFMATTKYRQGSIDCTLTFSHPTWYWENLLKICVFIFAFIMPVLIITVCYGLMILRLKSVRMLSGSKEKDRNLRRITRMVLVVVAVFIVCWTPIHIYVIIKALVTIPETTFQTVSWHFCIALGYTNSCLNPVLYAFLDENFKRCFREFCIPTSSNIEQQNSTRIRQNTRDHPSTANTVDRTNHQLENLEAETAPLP

The first experiment has as its target µ-opioid receptor (MOR), Human-ORPM1 (human, UniProt P35372 1-400). Put plainly: cell-based or functional assay.
For the molecule B1, the “MOR EC50” value is at most 200 nM.

In the case of B2, the “MOR EC50” value was at most 200 nM. As for B3, the “MOR EC50” value was at most 1 nM. Still for that read-out and setting: the result for B4 reads at most 1 nM.

On to B5, for which the “MOR EC50” value is at most 1 nM. Still for that read-out and setting: the result for B6 reads at most 1 nM; that for B7, at most 1 nM; that for B8, at most 1 nM.

With B9, the “MOR EC50” value was at most 1 nM. On the same count and under the same terms, the result for B10 reads at most 10 nM. On the same count and under the same terms, the result for B11 reads at most 1 nM. As for B12, the “MOR EC50” value was at most 1 nM. On the same count and under the same terms, with B13 the figure was at most 1 nM; with B14, at most 10 nM. Still for that read-out and setting: the result for B15 reads at most 1 nM; that for B16, at most 1 nM. Still for that read-out and setting: with B17 the figure was at most 200 nM. B18: the “MOR EC50” value was at most 1 nM. On the same count and under the same terms, the result for B19 reads at most 1 nM; that for B20, at most 1 nM.

Another experiment deals with δ-opioid receptor (DOR), Human-ORPD1 (human, UniProt P41143 1-372). Kind of experiment: cell-based or functional assay.
Chain of δ-opioid receptor (DOR), Human-ORPD1 (P41143 whole entry, stated change not applied): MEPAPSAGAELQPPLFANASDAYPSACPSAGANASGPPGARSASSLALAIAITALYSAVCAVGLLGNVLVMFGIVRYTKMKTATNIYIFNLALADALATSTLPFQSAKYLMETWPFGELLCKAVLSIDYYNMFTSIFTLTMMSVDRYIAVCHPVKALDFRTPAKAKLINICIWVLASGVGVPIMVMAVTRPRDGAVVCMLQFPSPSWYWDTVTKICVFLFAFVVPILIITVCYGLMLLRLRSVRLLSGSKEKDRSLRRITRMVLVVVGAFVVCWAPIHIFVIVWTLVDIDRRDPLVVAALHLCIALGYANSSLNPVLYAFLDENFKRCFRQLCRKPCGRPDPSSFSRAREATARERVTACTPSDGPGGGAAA
As for B1, the “DOR EC50” value is over 200 nM. Still for that read-out and setting: with B2 the figure was at most 200 nM. With B3, the “DOR EC50” value was at most 50 nM.

Turning to B4, the “DOR EC50” value is at most 10 nM.

B5: the “DOR EC50” value is at most 1 nM. On the same count and under the same terms, with B21 the figure was at most 50 nM; with B6, at most 1 nM; with B7, at most 1 nM. With B8, the “DOR EC50” value was at most 1 nM. Same read-out and setting: with B9 the figure was at most 1 nM. For B10, the “DOR EC50” value is at most 1 nM. Still for that read-out and setting: with B11 the figure was at most 1 nM; with B12, at most 1 nM. Same read-out and setting: the result for B13 reads at most 1 nM.

Consider B14, for which the “DOR EC50” value was at most 1 nM. The same measure, in the same setting: with B15 the figure was at most 10 nM; with B16, at most 10 nM.

For B17, the “DOR EC50” value was at most 200 nM. The same measure, in the same setting: the result for B18 reads at most 50 nM; that for B19, at most 50 nM. As to B20, the “DOR EC50” value was at most 10 nM.
